Data published in the supplement of paper PMC12042874.
± gives the uncertainty stated by the source.

Experiment: amyloid nucleation score (Sup35N fusion, yeast selection) (log enrichment); library NNK2; higher = more nucleation; inactive = no reads after selection
In short: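 Psi-negative yeast expressed Sup35N fused to peptides of 20 random codons. They were induced 24 hours with 100 μM copper sulfate, grown 7 days at 30°C without adenine and uracil, and their plasmid inserts from input and output were Illumina-sequenced. The nucleation score is the DiMSum log enrichment of output over input reads, centred on the mode score of non-aggregating sequences. Sequences with under 100 input reads were excluded.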

Substance | amyloid nucleation score
QWSVINRTS | 1.54 ± 0.31
MHMYMRSGFLLLFVSWVREC | -0.958 ± 0.76
STSVTMHSLSDF | -1.02 ± 0.78
TYYFVVQFI | 8.284 ± 0.036
IWGGFYS | -1.29 ± 0.75
CVGIFDNDICVEFMMALRLD | -1.05 ± 0.64
LVNSKYDLGSSGSFDNRFAC | -0.242 ± 0.63
WALYVGGANRFFMCQWVNLG | 2.26 ± 0.13
YWIRIRIQCFQGSIEQDTER | 4.96 ± 0.066
CNYVQIMLS | 2.81 ± 0.056
DAVRQGTL | 0.102 ± 1.1
DFLWTFVGNFLE | -1.43 ± 0.78
CGATQHSGTQVDLKLGFI | -0.321 ± 1.1
VLKVRHVFEGGTEVILQSNR | 2.22 ± 0.2
LAVVTCHCSSTCCSYLLNVG | 3.38 ± 0.06
IGIDLVRSGSVIFPSPTWKV | 4.411 ± 0.037
FYLRGHACDSSWSNLVVGLW | 4.8 ± 0.083
LHAGPDKSA | 0.068 ± 0.46
NISHVVNLHAWLYRLL | 3.39 ± 0.13
IYLTSIYRQFSMLLLGSRTE | inactive
DNIKTVSRMTWPWLMFTVGG | 0.3 ± 0.55
VVWSN | 0.845 ± 0.29
LSTCCVKVVVCRDFIIVDKF | 6.57 ± 0.039
IKWRSFPDSYLENFEFI | -1.6 ± 1.1
YNFDYTLMNYPLKAVPSEW | 8.286 ± 0.053

Substance | amyloid nucleation score
SQKLSIQYQLRYFILLVKPR | -0.704 ± 0.5
ILLNEVFDRTWSELPGCNCT | 0.043 ± 0.21
LLQKFVMGGEVRRESGGVRC | 0.726 ± 0.25
TVPTMVW | -0.124 ± 0.29
VFNWVRISPR | 8.81 ± 0.07
ITINSMSPRLPIRLRVVWKG | inactive
ESLGDSI | -0.352 ± 1
GVKRYDVHM | -0.244 ± 0.48
CQLFMQSSRCIRRRFATSAC | -0.295 ± 0.76
NYRLQIINGRRSTSVRVQGA | 0.606 ± 0.36
RSPRHQNQDPRLKGRNARSP | 2.49 ± 0.086
TETAL | -1.05 ± 0.61
SDVRVLNDQKSGVFC | 0.706 ± 0.15
DRFRYICSYVENSDYLLRCL | inactive
MRHMYRPPIVSLHRVAIGFM | -0.906 ± 0.63
SVGSGPVSSLRRKHDRGDTP | 0.253 ± 0.35
NLCSGTIVVFIGCMKAAWFV | 4.39 ± 0.045
MNMSEMSAYHFLFSGGSKLR | -0.21 ± 0.44
TACVSWGPSYWV | inactive
MYSVMLRTSYCTLARYMVLW | 1.08 ± 0.11
DEIVSERDIVSSNRLCGSIM | -0.561 ± 1.1
SLFQCNGSCVIYSYGILLYL | 7.71 ± 0.082
HVVVDSSVVAGCFTVFCRGI | 8.265 ± 0.046
HRDHGTISLHRKCSYVALAS | 1.14 ± 0.29
VFGACGTM | 0.606 ± 0.32

Substance | amyloid nucleation score
YDHDLINRKITSGHKVYFIG | -0.586 ± 0.49
VSNPSSQMNC | 0.042 ± 0.16
VRCEESWGDIICD | inactive
VSNYMIVKIQWFHIVVGPGL | 5.598 ± 0.031
CRAFVWQ | -0.889 ± 0.55
LCSMEIWRMRRMMQS | 0.154 ± 0.34
CKEDIISSEWYLSVGFA | inactive
GISCYMAPSGCRHNSVMSLW | 0.611 ± 0.5
VLRNKVVCSYQLYLRWFGKD | 1.64 ± 0.37
RDLSTGSPILEFHRCTRISG | -0.172 ± 0.76
SGCFVWPELVGESSIIMCPS | inactive
GCSNVCERGS | inactive
GYVWDVIGKWGTLRILRVSK | -0.498 ± 1.1
ALEMSMGKCFWGLVVVIMRW | -0.899 ± 0.36
YCWWRSWEPKILRCSLVLVK | 0.281 ± 0.44
VIVVRNQRKFVTSDLPLKVC | 1.04 ± 0.35
AVRYSLFF | 5.09 ± 0.054
DIGSMYEMLCRVVTIVLPRS | -0.723 ± 1.1
VHLGRV | -0.678 ± 0.48
KDLGA | 3.08 ± 0.13
HCAEHQPASGVLVTGYWDLG | 0.444 ± 0.54
KTLFINLHSCCANVGYAVRW | 4.87 ± 0.058
LFERFWFIL | 0.187 ± 0.23
HDRIFSIKSWWCRSIWEVGV | -1.79 ± 0.78
SVKQGN | 0.132 ± 0.22

Substance | amyloid nucleation score
LYRRFRQRCIRERERLVHGL | 0.01 ± 0.38
IFASRSGFLSIRQLSHPARR | 3.35 ± 0.078
NDCGSNDRLSNTFFWFLLFG | 0.142 ± 0.65
MVYPRYVSDTKQSRLLAGRE | 0.604 ± 0.57
IMPVMLERTGLSGLMCNGWG | -0.315 ± 0.65
KKLALKVVVSNCFKK | 5.991 ± 0.048
ALTFTGV | 0.286 ± 0.41
MIMLDAEGLYIIPRGVSKFL | 1.87 ± 0.11
HKGWIKLLLPAHQLITLPPN | 0.174 ± 1
PMFNEHRFSR | 2.37 ± 0.1
STCSTGHRSLRTKKRNSILS | 4.34 ± 0.096
LNDGPEGTCWSPNGVNSLLH | -0.382 ± 0.76
ISFMQGDCRWHQVNSLQRIM | -0.94 ± 0.54
RLFCSAVAH | 0.308 ± 0.44
LGMCRGLRLIMMDWFGSDKM | 2.35 ± 0.075
MQRTIYFS | 0.767 ± 0.58
DCTLAVLFYKTEFITPRAQW | 2.28 ± 0.14
EAFYLSFFN | inactive
LDFHPVCRGMSSPCQCASMR | 0.907 ± 0.2
FRYIKPTCSFICLVRFVGDF | -0.833 ± 1
LRSQSHR | 1.31 ± 0.33
VDILGMGRNHM | -1.04 ± 0.78
YKSVERTASRMIQIEVFWEY | inactive
VFCINAFRALQTYCCWMYF | 1.91 ± 0.087
SSSWSNTHRFCLRTL | inactive

Substance | amyloid nucleation score
CVKQWRTIIVTLYLGTLPK | 4.21 ± 0.059
GVVNSRYALFNCRLEFKDVL | 9.742 ± 0.071
FITDYTWTYLHAWLFIHQGV | -0.705 ± 1.1
VKPVFWKLGWRDYLYSMRQF | -1.11 ± 0.3
QSIRFVFLPYELGTYHGDEG | -0.241 ± 0.24
CAIAWRMPLDRPPLKE | -0.627 ± 0.76
ASSYMRWVEARTRYLACAEN | 4.665 ± 0.046
TSLMRYIPMGHLKAWIFLSI | 0.049 ± 1.1
QMIFGYQHRAALDIMNGVPD | inactive
YYGNFHLMSWVWSIGPCSIY | 4.88 ± 0.11
GADAGDCPRNHSCAMHAEGF | 1.13 ± 0.46
DRFRDVIICFFKCTCNRITQ | 4.949 ± 0.034
NGVKEYLGNTSWKCTNRA | -0.137 ± 0.5
SVSETLWYDYIFKFVISVAN | -1.03 ± 0.63
IKYLKCIVMCRFFVHWSSIV | -1.06 ± 0.76
TFFGWLALRIWARYRYE | inactive
YGVYVRCYLDGSLWWNFTAW | inactive
VYGPTVNFK | 0.761 ± 0.25
CHSNKSCRSHIEEI | -0.377 ± 0.5
DVRHQWFEMVRVVIICKPVN | -0.149 ± 0.42
CLGFGRSSPTGYNTCVVRNY | -0.493 ± 1.1
TSQLSFYKHSLVY | inactive
VVHQVSVGHCWVSR | 0.683 ± 0.21
IYYLRLWSM | inactive
TVRRTRFLNNISFNGFNVFV | 7.383 ± 0.054

Substance | amyloid nucleation score
VISQRLFS | -0.155 ± 0.74
ALLVRVIRYRGSRNESRCPA | 1.42 ± 0.34
ASWKFMFNCSKISRRPNTIT | 0.148 ± 1
KSGLTQLLQILSSCLELGIW | 0.38 ± 0.51
NLYMPDS | 0.395 ± 0.8
FVSGRKNETYSKVIHVSDVD | -0.198 ± 0.62
MIMEQSNNISNCLFVMQGPK | 7.143 ± 0.07
SSCGYLKTTFSKLSEAHCYR | -1.45 ± 1.1
LSDCE | inactive
TAKSVVA | -0.703 ± 0.29
CPVLG | 1.87 ± 0.32
LYMILNGYTLGSCFTVRDSF | 4.99 ± 0.078
WDNWDPVAAP | inactive
KTNSIPYSMVS | -0.113 ± 1.1
IDVSKCVLGKDSSLRGTNTR | -0.595 ± 0.28
GSLMHEFAH | -0.698 ± 0.78
VILGVGKTTNFYSSFFIRVW | inactive
DFYVSVPLRNCFSMSFIKWV | -0.766 ± 0.48
FGFCGFMVHVGLVRDFLFC | 0.257 ± 0.56
LAIDIMPFPCDTLS | -0.289 ± 0.26
DKICNYVVGGEVYFSMNHYW | 8.327 ± 0.047
SGSYF | -0.504 ± 0.45
AVAVACLDH | 0.713 ± 0.58
CVLVFIVNKTYA | 4.13 ± 0.06
ISDFQACIRGDRWDEKGYIS | inactive

Substance | amyloid nucleation score
FRKSFHIYIVELYMDDHPLM | inactive
FSRVESEIHSHWPW | 5.639 ± 0.041
RRKHLWRQRLWTR | -0.425 ± 0.63
YHCRSEVTCWLEYDG | 0.712 ± 0.28
LQSTILIYVVNFFTTGIMGK | 1.75 ± 0.11
CRSKASSSIRIPT | 0.586 ± 0.81
NFIKKGCGKGNLDLFSLRDV | inactive
YMSPAH | 0.606 ± 0.6
ICGGTSESGRYRKAGQGV | 1.07 ± 0.15
TIGRGYGSISQRHAIRLGDN | 0.164 ± 0.8
WTVRSARFWMSKQVVFSTTV | 0.812 ± 0.5
WTLLNCRGSEVKIGRCTKMG | inactive
CLLWVAQYVQAMEGVALSVG | 1.5 ± 0.21
DIVIYWV | -0.139 ± 0.63
SQRHRAFTSWRGLMRYN | -0.476 ± 1.1
STTHHARRFVSHESACLGAV | 1.11 ± 0.17
RYVQLIDHWSNGIVKVVGVL | 0.783 ± 0.56
SSIRLFCFTMAHVHMTDSHD | 4.53 ± 0.11
RMDVSYLAFVWSHN | 3.5 ± 0.056
SVCGLWWLSHSVQRWSEWYS | 5.99 ± 0.067
PDLMLPDRLDIERCLQVWD | 0.049 ± 0.18
YLVGCKDSRTSLSSLICIRL | 8.842 ± 0.03
